Assay results: patent US20040054131A1

Target: FGF receptor (FGFR) on Swiss 3T3 cells
Assay: cell-based or functional assay

- EC50 of mitogenesis (BrdU incorporation) in Swiss 3T3 cells with 15 U/ml heparin: 140 pM
Substance: basic FGF (ligand)
